Data published in US20250197882A1, “USE OF JAZ PROTEIN AND ITS DERIVATIVES IN AGRICULTURAL PEST PREVENTION AND CONTROL” (priority 2022, published 2025).

What was measured:
[1] = tested on: Sf9 ovarian cell line of Spodoptera frugiperda; type: cell-based
Description: Using insect cell lines toxicity testing and mechanism of action research of insecticides, as a new detection method, has the advantages of good target homogeneity, easy control of experimental conditions, and low screening costs compared to traditional bioassay methods. It is suitable for toxicological research of insecticidally active substances. In recent years, scholars at home and abroad have conducted extensive research on the activity of plant natural active ingredients on insect cells, and have achieved many research results of the action mechanism of plant natural active ingredients on insect cells, showing a good correlation between experimental results and in vivo toxicity testing and field experiments.
Fluorescence staining experiment: toxic effect of GhJAZ protein on Sf9 cell line (CL-0205, Procell) was detected using a Calcein/PI Cell Viability and Cytotoxicity Detection kit (Catalogue No.: C2015L, Beyotime, China). The Calcein/PI Cell Activity and Cytotoxicity Detection Kit is a very convenient kit for detecting the viability of animal cells based on Calcein AM (Calcein AM) and PI (Propidium Iodide) dual fluorescence staining. The specific steps are as follows: Adherent cells were blown and transferred to a 15 mL EP tube, centrifuged at 860-870 rpm for 5 minutes. […] After 30 minutes of culture, fluorescence microscopy images were taken. […]

[2] = tested on: cotton bollworm (Helicoverpa armigera); assay: Feed film-covering bioassay, larval growth inhibition, cotton bollworm; type: in vivo; settings: protein on artificial feed, after 7 days, FIGS. 6D, 6F
Protocol: (§1) Treatment group: add the prepared insect feed (Henan Jiyuan Baiyun Industrial Co., Ltd., product name: Grassland armyworm artificial feed) to a 24 well plate, with a volume of 200 microliters per well; use a film covering method to add diluted GhJAZ8 protein solutions of different concentrations (diluted with PBS) to the surface of the feed, and shake in the incubator until the protein is immersed in the culture medium. Take grassland armyworm and cotton bollworm larvae that have not been fed within the first 12 hours of incubation as experimental subjects, and place them in a culture box, with each concentration of protein applied to 100 larvae. Set 16 replicates for each protein concentration and 3 parallel measurement groups for each dose. Control group: different from the experimental group, PBS solution was added to the surface of the feed using a film covering method, and the rest were the same. After 7 days, age and weight will be recorded for statistical analysis. [formula]

[3] = tested on: fall armyworm (Spodoptera frugiperda); assay: Feed film-covering bioassay, larval growth inhibition, fall armyworm; type: in vivo; settings: protein on artificial feed, after 7 days, FIGS. 6C, 6E
Protocol: as §1

SfAPN4 = assay: Yeast two-hybrid (Y2H) interaction with SfAPN4; type: binding, Spodoptera frugiperda; settings: Y2HGold yeast, quadruple dropout medium, FIG. 4B
Description: DNA fragments shown in PGADT7::GhJAZ8 (SEQ ID No. 3), PGADT7::GhJAZ8^LGK (SEQ ID No. 25), PGADT7::GhJAZ13 (SEQ ID No. 8), PGADT7::GhJAZ14 (SEQ ID No. 10), PGADT7::GhJAZ24 (SEQ ID No. 12), PGADT7::GhJAZ27 (SEQ ID No. 14) and PGADT7::GhJAZ28 (SEQ ID No. 16) were inserted between the BamH1 and EcoR1 of a PGADT7 plasmid (Unibio Biotech, VT1639), respectively, to obtain pGADT7+GhJAZ8, pGADT7+GhJAZ8^LGK, pGADT7+GhJAZ13, pGADT7+GhJAZ14, pGADT7+GhJAZ24, pGADT7+GhJAZ27 and pGADT7+GhJAZ28.
The DNA fragment shown in PGBKT7: SfAPN4 (SEQ ID NO: 22) was inserted between BamH1 and EcoR1 of a pGBKT7 plasmid (Unibio Biotech, catalog number: VT1638), to obtain a vector plasmid, named pGBKT7+SfAPN4.
The mixture was centrifuged at 5000 rpm for 30 seconds to discard the supernatant, and the pellet was resuspended in ddH2O, coated on a double dropout medium (SD/-Leu/-Trp) and cultured at 28° C. for 2 days. After occurrence of the clonal plaques, the clones were selected and placed a quadruple dropout medium (SD Ade/-His/-Leu/-Trp, with Aba and X-α-gal added) and the interaction was observed after 4 days of culture at 28° C.

SfAPN4, sequence (as listed by the source): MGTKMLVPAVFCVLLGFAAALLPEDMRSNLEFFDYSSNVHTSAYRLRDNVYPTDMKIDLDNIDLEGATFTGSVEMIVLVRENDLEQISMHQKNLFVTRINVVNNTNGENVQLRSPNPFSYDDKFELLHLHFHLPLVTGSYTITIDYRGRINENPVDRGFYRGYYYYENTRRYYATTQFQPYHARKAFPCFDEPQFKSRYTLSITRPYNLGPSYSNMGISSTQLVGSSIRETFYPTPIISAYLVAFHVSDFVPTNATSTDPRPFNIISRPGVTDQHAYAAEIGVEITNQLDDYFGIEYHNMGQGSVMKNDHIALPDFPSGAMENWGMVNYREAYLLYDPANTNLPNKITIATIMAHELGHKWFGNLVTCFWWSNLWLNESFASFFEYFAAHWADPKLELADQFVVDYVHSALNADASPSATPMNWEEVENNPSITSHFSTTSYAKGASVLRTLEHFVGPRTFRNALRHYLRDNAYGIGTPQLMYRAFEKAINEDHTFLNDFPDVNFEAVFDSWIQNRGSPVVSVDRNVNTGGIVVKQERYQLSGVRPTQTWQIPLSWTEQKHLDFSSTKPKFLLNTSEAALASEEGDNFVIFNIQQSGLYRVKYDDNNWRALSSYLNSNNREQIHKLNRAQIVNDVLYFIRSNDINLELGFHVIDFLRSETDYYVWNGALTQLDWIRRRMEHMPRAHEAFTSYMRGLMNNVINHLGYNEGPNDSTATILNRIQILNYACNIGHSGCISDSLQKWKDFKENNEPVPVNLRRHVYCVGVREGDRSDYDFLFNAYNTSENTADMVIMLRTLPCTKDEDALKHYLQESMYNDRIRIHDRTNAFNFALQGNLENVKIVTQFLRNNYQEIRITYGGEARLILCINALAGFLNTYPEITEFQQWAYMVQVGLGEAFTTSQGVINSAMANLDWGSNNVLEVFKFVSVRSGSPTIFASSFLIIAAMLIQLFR

Molecule | cytotoxicity on Sf9 cells [1] | growth inhibition of cotton bollworm larvae [2] | growth inhibition of fall armyworm larvae [3] | interaction with SfAPN4 (Y2H) (SfAPN4)
GhJAZ16: cotton JAZ protein, SEQ ID NO: 5, expressed from pET-30a-GhJAZ16 (protein) MERDFIGLRSKNAAITIKVEPSNAQPDDSVLLRGSGMQLSFSNKVSTVPQFLSFDGARDDKPRKATHDTLLSSGFMTIPAADSNKKPHPGLTQKQGGNHYAATTYGLQQLDGHQSRLSHEARIFPSSSQPNHTITVSMNTPLLQPHLASPGQNIIGHTINPQPFTGVPIMAAPVSVVPPSSPIIGTTDLRNAAKSSRAPAQLTIFYAGSVCVYDDVSPDKAQAIMLLAGNVSSTTQSKTAPVTQPQTHIPRPCTLSPFSGLPNHLSVTSHVSLQPVAGSSGTNELTAATRIGALASTNNQPDPPKLVNPAVAVPQARKASLARFLEKRKERVSNTSPYNICKRSESGPLASDGISFSVTSAGSSPLQAIN | certain cytotoxic effects |  |  | 
GhJAZ8^LGK: GhJAZ8 with NGR domain mutated, N43G44R45 to L43G44K45, coding sequence SEQ ID No. 25 (protein) MRRNCNLELRLLPSSYPSDSHDMMEERIESPKTQQQQLTIFYLGKVCVSDVTELQAKAILMLANRERDERMKSPTGWEPVSPTLKSQVKCPNTALSMKRSLQRFLQKRKTRIQATSPYH |  | weakened | weakened | loses interaction
GhJAZ5: cotton JAZ protein, SEQ ID NO: 1, expressed in E. coli from pET-30a-GhJAZ5 (protein) MSSCSESTAMKPARSPEKPSFAQTCNLLSQYLKEKGSFGDLSLGMTCNVEANGTPVVPPPTMNLFPLNDKSDDVCGRNGGNPKNLTSMDLFPQQAGLASKDDSPNKLEPQTAPMTIFYGGQVIVFNDFPANKAKEIMLLASNSSSQSNNSFNPIPFTSSIARSPIESSIGVPPTSKPVHPAQRAVPGDLPIARRASLHRFLEKRKDRITAKAPYQINNSAAAPSLSGDNKSWLGLAAQSP | certain cytotoxic effects |  |  | 
